This data set concerns the molecule itself. The experiment in a line: oligomer bands on immunoblot of immunoprecipitated protein (reducing SDS-PAGE); quadriceps lysates (50 mM Tris, 150 mM NaCl, 1% NP-40, pH 7.4) of hSSPN-TG, mSSPN-TG, WT and SSPN-null mice immunoprecipitated with anti-SSPN monoclonal antibodies on protein A/G PLUS-agarose; eluates resolved by SDS-PAGE under reducing conditions and blotted with E2 or 10B8. (In general: A western blot detects proteins with antibodies after separation by electrophoresis.)

The values below come from publication PMC11173052, “The Development of Robust Antibodies to Sarcospan, a Dystrophin- and Integrin-Associated Protein, for Basic and Translational Research” (International Journal of Molecular Sciences, 2024).

By stoichiometry N is commonly meant the number of molecules, sites or subunits per partner or assembly.

B1: mouse sarcospan (mSSPN) (natural protein, UniProt Q62147 1-216, looked up)
chain: MGRKPSPRAQELPEEEARTCCGCRFPLLLALLQLALGIAVTVLGFLMASISPSLLVRDTPFWAGSIVCVVAYLGLFMLCVSYQVDERTCVQFSMKVFYFLLSALGLMVCMLAVAFAAHHYSLLAQFTCETSLDSCQCKLPSSEPLSRAFVYRDVTDCTSVTGTFKLFLIIQMVLNLVCGLVCLLACFVMWKHRYQVFYVGVGLRSLMASDGQLPKA
notes: sarcospan, mouse, GenBank U02487; 25-kDa protein with four transmembrane domains; seen as monomer and as a dimer band on reducing SDS-PAGE of immunoprecipitates; also called mouse SSPN; murine SSPN; source: endogenous (wild type) or transgenic overexpression (mSSPN-TG, Ln28), mouse quadriceps muscle lysate
Turning to B1, the “stoichiometry N” value was found to be 2.

B2: human sarcospan (hSSPN) (natural protein, UniProt Q14714 1-243, looked up)
chain: MGKNKQPRGQQRQGGPPAADAAGPDDMEPKKGTGAPKECGEEEPRTCCGCRFPLLLALLQLALGIAVTVVGFLMASISSSLLVRDTPFWAGIIVCLVAYLGLFMLCVSYQVDERTCIQFSMKLLYFLLSALGLTVCVLAVAFAAHHYSQLTQFTCETTLDSCQCKLPSSEPLSRTFVYRDVTDCTSVTGTFKLFLLIQMILNLVCGLVCLLACFVMWKHRYQVFYVGVRICSLTASEGPQQKI
notes: sarcospan, human, GenBank AF016028; hSSPN-TG muscle also holds endogenous mouse SSPN; also called human SSPN; source: transgenic overexpression in mouse skeletal muscle (hSSPN-TG, Ln3), quadriceps muscle lysate
Regarding B2, the “stoichiometry N” value came to 2.
